Target: amyloid beta monomer (Homo sapiens, UniProt P05067)
Experiment: SPR

Kd: 18 nM
B1: Gantenerumab (antibody, V domains shown)
VH: QVELVESGGGLVQPGGSLRLSCAASGFTFSSYAMSWVRQAPGKGLEWVSAINASGTRTYYADSVKGRFTISRDNSKNTLYLQMNSLRAEDTAVYYCARGKGNTHKPYGYVRYFDVWGQGTLVTVSS
VL: DIVLTQSPATLSLSPGERATLSCRASQSVSSSYLAWYQQKPGQAPRLLIYGASSRATGVPARFSGSGSGTDFTLTISSLEPEDFATYYCLQIYNMPITFGQGTKVEIK
